Biological target: Kapβ2 (untagged, GST removed) (human) (UniProt Q92973)
Assay: ITC; 10 μM Kapβ2 in the cell, 100 μM or 200 μM MBP-FUS protein in the syringe; 20 mM Tris–HCl, 150 mM NaCl, 10% glycerol, 2 mM BME; 20 °C; single class of binding sites, global analysis of duplicates or triplicates

Chain of Kapβ2 (untagged, GST removed) (human) (Q92973 9-898): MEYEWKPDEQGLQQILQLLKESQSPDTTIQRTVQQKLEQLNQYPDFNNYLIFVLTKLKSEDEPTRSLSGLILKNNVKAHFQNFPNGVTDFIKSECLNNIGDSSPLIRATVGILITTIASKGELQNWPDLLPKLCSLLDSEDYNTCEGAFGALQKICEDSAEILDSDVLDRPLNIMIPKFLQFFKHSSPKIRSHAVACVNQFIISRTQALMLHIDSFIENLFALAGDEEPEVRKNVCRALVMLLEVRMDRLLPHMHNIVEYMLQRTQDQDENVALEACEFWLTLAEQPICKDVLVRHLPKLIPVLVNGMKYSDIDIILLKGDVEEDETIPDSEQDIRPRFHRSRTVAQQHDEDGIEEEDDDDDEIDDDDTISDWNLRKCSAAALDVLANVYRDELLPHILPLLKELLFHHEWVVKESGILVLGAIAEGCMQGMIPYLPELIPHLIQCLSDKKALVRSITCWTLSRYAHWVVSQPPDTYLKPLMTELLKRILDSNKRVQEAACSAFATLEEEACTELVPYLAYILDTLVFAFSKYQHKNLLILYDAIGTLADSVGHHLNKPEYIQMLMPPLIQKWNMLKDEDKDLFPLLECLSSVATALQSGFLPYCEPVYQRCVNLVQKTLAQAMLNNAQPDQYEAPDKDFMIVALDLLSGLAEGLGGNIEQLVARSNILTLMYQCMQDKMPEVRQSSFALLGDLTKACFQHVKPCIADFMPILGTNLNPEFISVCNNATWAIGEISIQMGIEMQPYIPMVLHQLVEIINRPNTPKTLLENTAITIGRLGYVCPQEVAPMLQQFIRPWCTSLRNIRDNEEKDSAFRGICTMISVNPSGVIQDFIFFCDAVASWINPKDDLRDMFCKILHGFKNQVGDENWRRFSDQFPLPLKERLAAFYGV

Kd: 6 µM
Substance: MBP-FUS(453–500) (RGG3) (from UniProt P35637 453-500) (domain or fragment)
